Assay results taken from patent publication US20020110800A1, “Use of SHP-1 and SHP-2 to detect compounds involved in neuronal survival” (McGill University, priority 1997, published 2002).

Key:
Experiment in all cases: cell-based or functional assay
[1] = target: wild-type TrkA, baculovirus-expressed, activated (autophosphorylated) (UniProt P04629)
TrkA Y785F = TrkA Y785F (UniProt P04629)
TrkA Y490F = TrkA Y490F (UniProt P04629)
TrkA Y490/785F = TrkA Y490/785F (UniProt P04629)

B1: SHP-2 (enzyme, UniProt Q06124 2-593, looked up, species assumed)
Tyrosine-protein phosphatase non-receptor type 11: TSRRWFHPNITGVEAENLLLTRGVDGSFLARPSKSNPGDFTLSVRRNGAVTHIKIQNTGDYYDLYGGEKFATLAELVQYYMEHHGQLKEKNGDVIELKYPLNCADPTSERWFHGHLSGKEAEKLLTEKGKHGSFLVRESQSHPGDFVLSVRTGDDKGESNDGKSKVTHVMIRCQELKYDVGGGERFDSLTDLVEHYKKNPMVETLGTVLQLKQPLNTTRINAAEIESRVRELSKLAETTDKVKQGFWEEFETLQQQECKLLYSRKEGQRQENKNKNRYKNILPFDHTRVVLHDGDPNEPVSDYINANIIMPEFETKCNNSKPKKSYIATQGCLQNTVNDFWRMVFQENSRVIVMTTKEVERGKSKCVKYWPDEYALKEYGVMRVRNVKESAAHDYTLRELKLSKVGQGNTERTVWQYHFRTWPDHGVPSDPGGVLDFLEEVHHKQESIMDAGPVVVHCSAGIGRTGTFIVIDILIDIIREKGVDCDIDVPKTIQMVRSQRSGMVQTEAQYRFIYMAVQHYIETLQRRIEEEQKSKRKGHEYTNIKYSLADQTSGDQSPLPPCTPTPPCAEMREDSARVYENVGLMQQQKSFR
2 fold: Trk tyrosine dephosphorylation on co-expression in insect cells (anti-pTyr blot) [1] | dephosphorylation of Trk at Y674/Y675 (phospho-specific anti-Trk antibodies, co-expression in insect cells) [1] | Trk tyrosine dephosphorylation on co-expression in insect cells (anti-pTyr blot) (TrkA Y785F) | Trk tyrosine dephosphorylation on co-expression in insect cells (anti-pTyr blot) (TrkA Y490F) | Trk tyrosine dephosphorylation on co-expression in insect cells (anti-pTyr blot) (TrkA Y490/785F)
